The values that follow come from the RNAGym collection of RNA variant scans (doi:10.1073/pnas.2313332121).

Fewer inactive variants are shown than the library holds.

To fix the notation:
B1: TPR 5TU (parent)
chain: GGAUCUUCUCGAUCUAACAAAAAAGACAAAUCUGCCACAAAGCUUGAGAGCAUCUUCGGAUGCAGAGGCGGCAGCCUUCGGUGGCGCGAUAGCGCCAACGUUCUCAACUAUGACACGCAAAACGCGUGCUCCGUUGAAUGGAGUUUAUCAUG

In this data set the parent is B1. In words: polymerase ribozyme fitness, log enrichment relative to wild type (log ratio); higher = more active; in vitro selection for triplet polymerase activity. Put shortly: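 Only genotypes with ≥10 input reads and ≥1 read per output were kept after Illumina sequencing of input and output libraries. These libraries were PCR-built, transcribed mutants of each subunit of a heterodimeric triplet polymerase ribozyme, each put through one triplicate in vitro selection round with frozen incubation at −7 °C, gel excision of extended constructs, streptavidin-bead capture and RT-PCR. Fitness is a logarithmic ratio of genotype enrichment to wild-type enrichment, from inverse-variance-weighted replicate averages, with the logarithm in base 2.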
For the variant C10G A37G G92C U135G A137G C149G, the “polymerase ribozyme fitness (log ratio)” value was at most -4.2.
Consider U9A A41G A91U C95A C96G U102G G133A U135C, for which the “polymerase ribozyme fitness (log ratio)” value was at most -4.2.
Consider C8U G59A C116U, for which the “polymerase ribozyme fitness (log ratio)” value is -3.27.
For U9C A12G A21U G42U C51G U53A C96A, the “polymerase ribozyme fitness (log ratio)” value is at most -4.2.
Consider U9A A26U A47C A49G G84A G86C, for which the “polymerase ribozyme fitness (log ratio)” value is at most -4.2.
With U9G A20C C32G A89C U144A, the “polymerase ribozyme fitness (log ratio)” value was at most -4.2.
For U9C C57G G140C, the “polymerase ribozyme fitness (log ratio)” value is at most -4.2.
Take U9A A23C C35G C75U G92U C95G U127A: the “polymerase ribozyme fitness (log ratio)” value is at most -4.2.
In the case of U9C C38U A52U C75G G92U G94A G136U U144G, the “polymerase ribozyme fitness (log ratio)” value is at most -4.2.
In the case of C8U G84U, the “polymerase ribozyme fitness (log ratio)” value is -4.13.
In the case of C10A C85G G141U, the “polymerase ribozyme fitness (log ratio)” value was at most -4.2.
Consider U9A A24G C54A C87G, for which the “polymerase ribozyme fitness (log ratio)” value is at most -4.2.
As to C8U G88U G92A, the “polymerase ribozyme fitness (log ratio)” value is at most -4.2.
As for C10A C85U G133C U134A U146G, the figure is at most -4.2.
On to U9G C10A C18U A66U G81U C96U, for which the “polymerase ribozyme fitness (log ratio)” value is at most -4.2.
Take U9G C14A C85U G141U: the “polymerase ribozyme fitness (log ratio)” value is -4.19.
Take U9G C54G G62A C75A G81C C93G C96A C103G C118U: the “polymerase ribozyme fitness (log ratio)” value is at most -4.2.
Consider C10A G81C, for which the “polymerase ribozyme fitness (log ratio)” value is at most -4.2.
Take U9A C96U A110C: the “polymerase ribozyme fitness (log ratio)” value is at most -4.2.
Take C10G C32G C38G U55G C87A G92A C125G G126A: the “polymerase ribozyme fitness (log ratio)” value was -4.1.
Take C10A A17U C36U C76U G84U U101A U104G C108U A121C: the “polymerase ribozyme fitness (log ratio)” value was at most -4.2.
On to C10A A23C G25C G92A A113U, for which the “polymerase ribozyme fitness (log ratio)” value is at most -4.2.
Next, C10A G11A A39U C93A G141U: at most -4.2; C10A G84U: at most -4.2.
Turning to U9A C10U C75A C87A A110G A119C, the “polymerase ribozyme fitness (log ratio)” value is at most -4.2.
As for U9G A16U G80A G83C, the “polymerase ribozyme fitness (log ratio)” value was -4.08.
Consider U9G G86A A138G, for which the “polymerase ribozyme fitness (log ratio)” value is at most -4.2.
For C10G A29C C54A U55G G88A G92U G124U, the “polymerase ribozyme fitness (log ratio)” value is at most -4.2.
Take U9G A23U G34C C57A C93A: the “polymerase ribozyme fitness (log ratio)” value was at most -4.2.
C10A G67C C93G C99G A137U U146A: the “polymerase ribozyme fitness (log ratio)” value is at most -4.2.
Regarding U9C A17U A89G A122G, the “polymerase ribozyme fitness (log ratio)” value was at most -4.2.
Turning to C8U C57U A60C A97U A115U, the “polymerase ribozyme fitness (log ratio)” value was at most -4.2.
Take C10A A24C G71A U77G G94A C99A C125U G140C: the “polymerase ribozyme fitness (log ratio)” value is at most -4.2.
With C8U C43G A47U A64G G70A C79G C99G U135C G136C U145A, the “polymerase ribozyme fitness (log ratio)” value is at most -4.2.
As for C8U U44G U55A C79U G88A A110U, the figure is at most -4.2.
U9G C32A U55A C57U C93G A142C U148C: the “polymerase ribozyme fitness (log ratio)” value was -4.04.
As for U9G C32G G71A, the figure is at most -4.2; as for U9G A16G C18A C63U, at most -4.2; as for U9G U15G C27G U31A C38A A66C G67A C87U C99G G143C, at most -4.2.
Regarding C10G C27U U61A C99A, the “polymerase ribozyme fitness (log ratio)” value is at most -4.2.
U9C U15G C93A: the “polymerase ribozyme fitness (log ratio)” value is at most -4.2.
For the variant C8U G25C U82A C87A, the “polymerase ribozyme fitness (log ratio)” value is at most -4.2.
Regarding C10G A23C U31G C75U C87G C93A G133U G136U, the “polymerase ribozyme fitness (log ratio)” value was at most -4.2.
Next, U9A C63U C69U C76U C93A A113U G136C: at most -4.2; U9G U33G G59A G140U: at most -4.2.
Next, U9G A20C A29U C35U A47C C54U U56A C96A U130G: at most -4.2; C8U U82G C87A: at most -4.2.
For U9A A41U A52C G62U C87G A89G C95U C116A A142C U146A A150C, the “polymerase ribozyme fitness (log ratio)” value is at most -4.2.
As for U9G A29C G59A C76U C87G A120C, the “polymerase ribozyme fitness (log ratio)” value is at most -4.2.
Regarding U9G G11C C76A G92C U134C U139G A150G, the “polymerase ribozyme fitness (log ratio)” value is at most -4.2.
For U9A C14U A49U C51U G86U A89U, the “polymerase ribozyme fitness (log ratio)” value was at most -4.2.
Next, C10G C32A G86U G92C G124A A137G: at most -4.2; U9A U31G G58U A73U C123U U135A: at most -4.2.
Turning to C10G A73U C76A C85G, the “polymerase ribozyme fitness (log ratio)” value was at most -4.2.
C10A A23C G50A C75G C95U C96A C123G: the “polymerase ribozyme fitness (log ratio)” value is at most -4.2.
In the case of U9C A22C C96G C99G G128U, the “polymerase ribozyme fitness (log ratio)” value was at most -4.2.
Consider U9G C38U C54U C57A A60G, for which the “polymerase ribozyme fitness (log ratio)” value was at most -4.2.
Next, U9G C18U U45G G48A C76U: at most -4.2; C8U U31G: -3.21.
Regarding U9G A17U G94A, the “polymerase ribozyme fitness (log ratio)” value was at most -4.2.
Next, C10A U33A U78G U90A G140A: at most -4.2; C8U G83C C125U: at most -4.2; C8U G81C: -3.94.
As to U9A G141A, the “polymerase ribozyme fitness (log ratio)” value is -2.94.
As to U9A G141C, the “polymerase ribozyme fitness (log ratio)” value is -3.23.
For the variant U9G U53A, the “polymerase ribozyme fitness (log ratio)” value was -3.81.
Next, U9A G50A G94U: at most -4.2.
As for U9G A29C C32G G58C C76A C79A C118G G141C G143A, the “polymerase ribozyme fitness (log ratio)” value was at most -4.2.
Take U9A G86A C93U G141C: the “polymerase ribozyme fitness (log ratio)” value is at most -4.2.
As for U9A U15A G48C C51G G84A, the figure is at most -4.2.
Consider U9C C35G A39U C103G, for which the “polymerase ribozyme fitness (log ratio)” value is at most -4.2.
Next, U9A G59A A60C C93U: at most -4.2; U9A A20C A23U U31G A47C G50U G58A C85U A91C: at most -4.2; U9A U31G U53G G88A G126U A150C: at most -4.2.
For the variant C10A A39U G86C U109G U130C, the “polymerase ribozyme fitness (log ratio)” value was at most -4.2.
With U9G G48C G62A U82A G84U, the “polymerase ribozyme fitness (log ratio)” value was at most -4.2.
For C8U C43U C85U G100A A142U, the “polymerase ribozyme fitness (log ratio)” value is at most -4.2.
As for C10A C14U C93G C149U, the “polymerase ribozyme fitness (log ratio)” value is at most -4.2.
Regarding U9G C18G A30U C35G C87G A147G, the “polymerase ribozyme fitness (log ratio)” value was at most -4.2.
On to C10G A28G U82G G94C C95A G140A, for which the “polymerase ribozyme fitness (log ratio)” value was at most -4.2.
Turning to U9A G128C U139A, the “polymerase ribozyme fitness (log ratio)” value was at most -4.2.
C10G A22G A39U U109C: the “polymerase ribozyme fitness (log ratio)” value was at most -4.2.
Turning to U9G A17C A52C G84A C118A, the “polymerase ribozyme fitness (log ratio)” value is at most -4.2.
